Assay results published in paper doi:10.1101/2023.07.07.548075 (bioRxiv, 2023).

Molecular target: the molecule itself
Test: SEC

B1: MBP-Δexon3 NLRP3 + GSGAGG linker (human NLRP3 3-1036, Δ95-134 + linker (GSGAGG)) (natural protein)
chain: MASTRCKLARYLEDLEDVDLKKFKMHLEDYPPQKGCIPLPRGQTEKADHVDLATLMIDFNGEEKAWAMAVWIFAAINRRDLYEKAKRDEPKWGSGAGGDYRKKYRKYVRSRFQCIEDRNARLGESVSLNKRYTRLRLIKEHRSQQEREQELLAIGKTKTCESPVSPIKMELLFDPDDEHSEPVHTVVFQGAAGIGKTILARKMMLDWASGTLYQDRFDYLFYIHCREVSLVTQRSLGDLIMSCCPDPNPPIHKIVRKPSRILFLMDGFDELQGAFDEHIGPLCTDWQKAERGDILLSSLIRKKLLPEASLLITTRPVALEKLQHLLDHPRHVEILGFSEAKRKEYFFKYFSDEAQARAAFSLIQENEVLFTMCFIPLVCWIVCTGLKQQMESGKSLAQTSKTTTAVYVFFLSSLLQPRGGSQEHGLCAHLWGLCSLAADGIWNQKILFEESDLRNHGLQKADVSAFLRMNLFQKEVDCEKFYSFIHMTFQEFFAAMYYLLEEEKEGRTNVPGSRLKLPSRDVTVLLENYGKFEKGYLIFVVRFLFGLVNQERTSYLEKKLSCKISQQIRLELLKWIEVKAKAKKLQIQPSQLELFYCLYEMQEEDFVQRAMDYFPKIEINLSTRMDHMVSSFCIENCHRVESLSLGFLHNMPKEEEEEEKEGRHLDMVQCVLPSSSHAACSHGLVNSHLTSSFCRGLFSVLSTSQSLTELDLSDNSLGDPGMRVLCETLQHPGCNIRRLWLGRCGLSHECCFDISLVLSSNQKLVELDLSDNALGDFGIRLLCVGLKHLLCNLKKLWLVSCCLTSACCQDLASVLSTSHSLTRLYVGENALGDSGVAILCEKAKNPQCNLQKLGLVNSGLTSVCCSALSSVLSTNQNLTHLYLRGNTLGDKGIKLLCEGLLHPDCKLQVLELDNCNLTSHCCWDLSTLLTSSQSLRKLSLGNNDLGDLGVMMFCEVLKQQSCLLQNLGLSEMYFNYETKSALETLQEEKPELTVVFEPSW
- binding result: binds
